Measurements from the supplement of paper PMC9112550, “Optimization of the antimicrobial peptide Bac7 by deep mutational scanning” (BMC Biology, 2022).

Tested on: Escherichia coli TOP10
Experiment: shrunken log2 fold change of peptide-encoding DNA abundance (4.5 h post-induction vs induction); higher = less antimicrobial activity (less host growth inhibition)
Conditions: time post-induction: 4.5 h; library: site-saturation at positions 5, 18, 19, 20
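Note: peptides expressed intracellularly from a pBAD plasmid library in pooled LB shake-flask culture, induced with 0.3% L-arabinose, DNA abundance read by NGS, three biological replicates, DESeq2 with apeglm shrinkage.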

Sequence | shrunken log2 fold change
RRIRKRPPRLPRPRPRPKNEPRP | 0.345
RRIRKRPPRLPRPRPRPKPKPRP | 0.464
RRIRKRPPRLPRPRPRPKPLPRP | 0.687
RRIRKRPPRLPRPRPRPKPPPRP | 0.76
RRIRKRPPRLPRPRPRPKQRPRP | 0.393
RRIRKRPPRLPRPRPRPKQVPRP | -0.176
RRIRKRPPRLPRPRPRPKRTPRP | 1.7
RRIRKRPPRLPRPRPRPKTCPRP | 0.209
RRIRKRPPRLPRPRPRPKTFPRP | -0.124
RRIRKRPPRLPRPRPRPKTQPRP | 0.422
RRIRKRPPRLPRPRPRPKYIPRP | -0.0449
RRIRKRPPRLPRPRPRPLDGPRP | 0.105
RRIRKRPPRLPRPRPRPLDKPRP | -0.0705
RRIRKRPPRLPRPRPRPLDQPRP | 0.257
RRIRKRPPRLPRPRPRPLEDPRP | -0.0129
RRIRKRPPRLPRPRPRPLETPRP | 0.361
RRIRKRPPRLPRPRPRPLFEPRP | 0.513
RRIRKRPPRLPRPRPRPLHKPRP | 0.342
RRIRKRPPRLPRPRPRPLHNPRP | 0.0882
RRIRKRPPRLPRPRPRPLHPPRP | 0.158
RRIRKRPPRLPRPRPRPLIRPRP | -0.0949
RRIRKRPPRLPRPRPRPLKPPRP | 0.238
RRIRKRPPRLPRPRPRPLLNPRP | -0.295
RRIRKRPPRLPRPRPRPLLVPRP | 0.372
RRIRKRPPRLPRPRPRPLNIPRP | -0.0957

Sequence | shrunken log2 fold change
RRIRKRPPRLPRPRPRPLPGPRP | 0.529
RRIRKRPPRLPRPRPRPLPSPRP | 0.0447
RRIRKRPPRLPRPRPRPLQWPRP | 0.0701
RRIRKRPPRLPRPRPRPLSHPRP | 0.131
RRIRKRPPRLPRPRPRPLSNPRP | 0.436
RRIRKRPPRLPRPRPRPLTAPRP | 0.403
RRIRKRPPRLPRPRPRPLTNPRP | -0.0294
RRIRKRPPRLPRPRPRPLTVPRP | 0.344
RRIRKRPPRLPRPRPRPLVFPRP | -0.0076
RRIRKRPPRLPRPRPRPLVQPRP | 0.459
RRIRKRPPRLPRPRPRPLVTPRP | 0.24
RRIRKRPPRLPRPRPRPLWVPRP | 0.0688
RRIRKRPPRLPRPRPRPLYMPRP | -0.514
RRIRKRPPRLPRPRPRPLYNPRP | -0.263
RRIRKRPPRLPRPRPRPMDDPRP | 0.123
RRIRKRPPRLPRPRPRPMEIPRP | 0.155
RRIRKRPPRLPRPRPRPMFRPRP | 0.0113
RRIRKRPPRLPRPRPRPMGCPRP | 0.408
RRIRKRPPRLPRPRPRPMHTPRP | 0.192
RRIRKRPPRLPRPRPRPMIQPRP | 0.195
RRIRKRPPRLPRPRPRPMKDPRP | 0.618
RRIRKRPPRLPRPRPRPMKPPRP | 0.145
RRIRKRPPRLPRPRPRPMLEPRP | 0.621
RRIRKRPPRLPRPRPRPMLSPRP | -0.227
RRIRKRPPRLPRPRPRPMLWPRP | 0.323

Sequence | shrunken log2 fold change
RRIRKRPPRLPRPRPRPMLYPRP | -0.26
RRIRKRPPRLPRPRPRPMMAPRP | 0.255
RRIRKRPPRLPRPRPRPMMLPRP | -0.0136
RRIRKRPPRLPRPRPRPMMNPRP | 0.154
RRIRKRPPRLPRPRPRPMNDPRP | 0.188
RRIRKRPPRLPRPRPRPMNPPRP | 0.0725
RRIRKRPPRLPRPRPRPMPTPRP | 0.0822
RRIRKRPPRLPRPRPRPMQFPRP | 0.105
RRIRKRPPRLPRPRPRPMRDPRP | 0.0228
RRIRKRPPRLPRPRPRPMRSPRP | 0.638
RRIRKRPPRLPRPRPRPMSEPRP | 0.148
RRIRKRPPRLPRPRPRPMSSPRP | 0.0811
RRIRKRPPRLPRPRPRPMSVPRP | -0.39
RRIRKRPPRLPRPRPRPMTNPRP | 0.184
RRIRKRPPRLPRPRPRPMTPPRP | 0.334
RRIRKRPPRLPRPRPRPMTYPRP | -0.212
RRIRKRPPRLPRPRPRPMWGPRP | -0.0954
RRIRKRPPRLPRPRPRPMWLPRP | 0.642
RRIRKRPPRLPRPRPRPMYPPRP | 0.00349
RRIRKRPPRLPRPRPRPNAAPRP | 0.986
RRIRKRPPRLPRPRPRPNAEPRP | 0.531
RRIRKRPPRLPRPRPRPNCAPRP | 0.873
RRIRKRPPRLPRPRPRPNCLPRP | -0.0339
RRIRKRPPRLPRPRPRPNCTPRP | 0.335
RRIRKRPPRLPRPRPRPNDIPRP | 0.0543

Sequence | shrunken log2 fold change
RRIRKRPPRLPRPRPRPNFFPRP | 0.0314
RRIRKRPPRLPRPRPRPNGTPRP | -0.0678
RRIRKRPPRLPRPRPRPNIAPRP | 0.262
RRIRKRPPRLPRPRPRPNIMPRP | -0.189
RRIRKRPPRLPRPRPRPNIVPRP | 0.135
RRIRKRPPRLPRPRPRPNLCPRP | 0.118
RRIRKRPPRLPRPRPRPNLFPRP | 0.00721
RRIRKRPPRLPRPRPRPNMFPRP | -0.155
RRIRKRPPRLPRPRPRPNMWPRP | -0.109
RRIRKRPPRLPRPRPRPNNMPRP | -0.304
RRIRKRPPRLPRPRPRPNNPPRP | -0.00604
RRIRKRPPRLPRPRPRPNPIPRP | 0.0804
RRIRKRPPRLPRPRPRPNQAPRP | -0.171
RRIRKRPPRLPRPRPRPNQEPRP | -0.0316
RRIRKRPPRLPRPRPRPNRYPRP | 0.0446
RRIRKRPPRLPRPRPRPNTIPRP | 0.0945
RRIRKRPPRLPRPRPRPNVPPRP | 0.11
RRIRKRPPRLPRPRPRPNVYPRP | -0.0771
RRIRKRPPRLPRPRPRPNYAPRP | -0.0324
RRIRKRPPRLPRPRPRPPCDPRP | 0.415
RRIRKRPPRLPRPRPRPPELPRP | 0.23
RRIRKRPPRLPRPRPRPPFNPRP | 0.0386
RRIRKRPPRLPRPRPRPPGCPRP | 0.955
RRIRKRPPRLPRPRPRPPGFPRP | 0.55
RRIRKRPPRLPRPRPRPPGQPRP | 1.25

Sequence | shrunken log2 fold change
RRIRKRPPRLPRPRPRPPGWPRP | 0.675
RRIRKRPPRLPRPRPRPPHFPRP | 0.519
RRIRKRPPRLPRPRPRPPHKPRP | 0.835
RRIRKRPPRLPRPRPRPPHWPRP | 0.756
RRIRKRPPRLPRPRPRPPIPPRP | 0.987
RRIRKRPPRLPRPRPRPPLGPRP | 0.668
RRIRKRPPRLPRPRPRPPLHPRP | 0.694
RRIRKRPPRLPRPRPRPPLSPRP | 0.832
RRIRKRPPRLPRPRPRPPRNPRP | 0.671
RRIRKRPPRLPRPRPRPPSNPRP | 0.714
RRIRKRPPRLPRPRPRPQAFPRP | -0.0237
RRIRKRPPRLPRPRPRPQAGPRP | -0.00963
RRIRKRPPRLPRPRPRPQAKPRP | -0.00692
RRIRKRPPRLPRPRPRPQAPPRP | 0.537
RRIRKRPPRLPRPRPRPQCMPRP | 0.0247
RRIRKRPPRLPRPRPRPQCQPRP | 0.114
RRIRKRPPRLPRPRPRPQEKPRP | -0.0233
RRIRKRPPRLPRPRPRPQFCPRP | 0.0712
RRIRKRPPRLPRPRPRPQGDPRP | 0.0739
RRIRKRPPRLPRPRPRPQGMPRP | -0.027
RRIRKRPPRLPRPRPRPQGYPRP | -0.0839
RRIRKRPPRLPRPRPRPQIHPRP | 0.0287
RRIRKRPPRLPRPRPRPQINPRP | -0.159
RRIRKRPPRLPRPRPRPQLFPRP | 0.364
RRIRKRPPRLPRPRPRPQMVPRP | -0.0031

Sequence | shrunken log2 fold change
RRIRKRPPRLPRPRPRPQNGPRP | -0.178
RRIRKRPPRLPRPRPRPQNMPRP | -0.521
RRIRKRPPRLPRPRPRPQQMPRP | 0.313
RRIRKRPPRLPRPRPRPQRVPRP | 0.146
RRIRKRPPRLPRPRPRPQSRPRP | 0.0866
RRIRKRPPRLPRPRPRPQSSPRP | -0.0228
RRIRKRPPRLPRPRPRPQTKPRP | 0.069
RRIRKRPPRLPRPRPRPQWFPRP | -0.185
RRIRKRPPRLPRPRPRPQYDPRP | -0.212
RRIRKRPPRLPRPRPRPRAGPRP | 0.48
RRIRKRPPRLPRPRPRPRANPRP | 0.588
RRIRKRPPRLPRPRPRPRAVPRP | 0.849
RRIRKRPPRLPRPRPRPRCLPRP | 0.226
RRIRKRPPRLPRPRPRPRDNPRP | 0.15
RRIRKRPPRLPRPRPRPRELPRP | 0.753
RRIRKRPPRLPRPRPRPRFEPRP | 0.43
RRIRKRPPRLPRPRPRPRGAPRP | 0.891
RRIRKRPPRLPRPRPRPRGPPRP | 1.23
RRIRKRPPRLPRPRPRPRHEPRP | -0.115
RRIRKRPPRLPRPRPRPRIKPRP | 0.185
RRIRKRPPRLPRPRPRPRITPRP | 0.227
RRIRKRPPRLPRPRPRPRNHPRP | 0.197
RRIRKRPPRLPRPRPRPRPPPRP | 1.15
RRIRKRPPRLPRPRPRPRQLPRP | 0.8
RRIRKRPPRLPRPRPRPRSLPRP | -0.00364
